Results reported in patent publication US20230265151A1, “GIP/GLP1 CO-AGONIST COMPOUNDS” (priority 2020, published 2023).

Experiments:
human GLP-1 receptor = target: T1, human GLP-1 receptor (human, UniProt P43220 24-463); assay: SPA competition vs [125I]-GLP-1, hGLP-1R membranes
T1 construct: whole, on cells; also called hGLP-1R; human glucagon-like peptide-1 receptor
Outline: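 Competition binding in 25 mM HEPES pH 7.4, 2.5 mM CaCl₂, 1 mM MgCl₂, 0.1% bacitracin, 0.003% TWEEN-20, EDTA-free protease inhibitors. IC₅₀ from four-parameter nonlinear fit; Kᵢ given as geometric mean ± SEM, n = independent replicates on different days.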

human glucagon receptor = target: T2, human glucagon receptor (human, UniProt P47871 26-477); assay: SPA competition vs [125I]-Gcg, hGcgR membranes
T2 construct: whole, on cells; also called hGCGR; hGcgR
Procedure: The binding buffer contains 25 mM 4-(2-hydroxyethyl)-1-piperazineethanesulfonic acid (HEPES), pH 7.4, 2.5 mM CaCl₂, 1 mM MgCh, 0.1% (w/v) bacitracin (Research Products), 0.003% (w/v) Polyoxyethylenesorbitan monolaurate (TWEEN®-20), and Roche Complete™ Protease Inhibitors without EDTA. […] Plates are sealed and mixed on a plate shaker (setting 6) for 1 minute and read with a PerkinElmer Trilux MicroBeta® scintillation counter after 12 hours of incubation/settling time at room temperature.
Data are analyzed using four-parameter (curve maximum, curve minimum, IC₅₀, Hill slope) nonlinear regression routines (Genedata Screener, version 12.0.4, Genedata AG, Basal, Switzerland). […] Values for Kᵢ are reported as the geometric mean, with error expressed as the standard error of the mean (SEM) and n is equal to the number of independent replicates (determined in assays performed on different days).

human GIP receptor = target: T3, human GIP receptor (human, UniProt P48546 22-466); assay: SPA competition vs [125I]-GIP, hGIPR membranes
T3 construct: whole, on cells; also called hGIPR; human glucose-dependent insulinotropic polypeptide receptor
T3 sequence (looked up): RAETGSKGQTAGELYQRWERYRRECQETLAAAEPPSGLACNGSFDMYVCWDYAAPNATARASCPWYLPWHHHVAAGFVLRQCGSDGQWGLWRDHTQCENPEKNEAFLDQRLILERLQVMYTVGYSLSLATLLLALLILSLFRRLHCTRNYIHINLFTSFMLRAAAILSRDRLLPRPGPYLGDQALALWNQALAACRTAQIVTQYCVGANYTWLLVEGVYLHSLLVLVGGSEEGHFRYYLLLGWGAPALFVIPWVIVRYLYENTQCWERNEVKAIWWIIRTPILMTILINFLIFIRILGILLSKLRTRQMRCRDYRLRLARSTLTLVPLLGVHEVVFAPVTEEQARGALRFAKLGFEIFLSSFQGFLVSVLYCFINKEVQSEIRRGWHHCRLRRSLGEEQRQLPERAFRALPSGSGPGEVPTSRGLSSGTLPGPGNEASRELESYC

T2 sequence (P47871 26-477): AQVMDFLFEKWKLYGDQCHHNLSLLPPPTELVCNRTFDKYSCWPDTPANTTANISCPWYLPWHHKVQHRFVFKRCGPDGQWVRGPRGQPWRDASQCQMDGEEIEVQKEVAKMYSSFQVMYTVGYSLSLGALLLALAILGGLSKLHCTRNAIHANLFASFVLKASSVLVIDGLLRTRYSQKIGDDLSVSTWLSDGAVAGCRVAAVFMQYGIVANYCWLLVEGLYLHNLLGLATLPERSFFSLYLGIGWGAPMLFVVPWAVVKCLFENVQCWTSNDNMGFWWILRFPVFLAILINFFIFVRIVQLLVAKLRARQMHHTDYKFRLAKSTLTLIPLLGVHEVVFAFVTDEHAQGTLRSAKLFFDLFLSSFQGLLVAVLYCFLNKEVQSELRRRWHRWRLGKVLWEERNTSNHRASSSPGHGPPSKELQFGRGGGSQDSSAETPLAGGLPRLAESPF

B1: Y-Aib-EGT-αMeF(2F)-TSD-1Nal-SI-αMeL-LD-Orn-K((2-[2-(2-Amino-ethoxy)-ethoxy]-acetyl)2-(γ-Glu)-CO-(CH2)12-CO2H)AQ-Aib-EFI-(D-Glu)-αMeY-LIEGGK((2-[2-(2-Amino-ethox … (peptide)
peptide: YXEGTXTSDXSIXLDXKAQXEFIXXLIEGGKSSGAPPPS
modifications: Aib2, αMeF(2F)6, 1Nal10, αMeL13, Orn16, K17(Z1), Aib20, D-Glu24, αMeY25, K31(Z1), C-term NH2; Z1=AEEA2-(γ-Glu)-CO-(CH2)12-CO2H
- Ki (human GLP-1 receptor): 2.85 nM
- Ki (human glucagon receptor): 137 nM
- Ki (human GIP receptor): 0.152 nM

B2: Y-Aib-EGT-αMeF(2F)-TSD-4Pal-SI-αMeL-LD-Orn-K((2-[2-(2-Amino-ethoxy)-ethoxy]-acetyl)2-(γ-Glu)-CO-(CH2)12-CO2H)AQ-Aib-E-1Nal-I-(D-Glu)-αMeY-LIEGGK((2-[2-(2-Amino- … (peptide)
peptide: YXEGTXTSDXSIXLDXKAQXEXIXXLIEGGKSSGAPPPS
modifications: Aib2, αMeF(2F)6, 4Pal10, αMeL13, Orn16, K17(Z1), Aib20, 1Nal22, D-Glu24, αMeY25, K31(Z1), C-term NH2; Z1=AEEA2-(γ-Glu)-CO-(CH2)12-CO2H
- Ki (human GLP-1 receptor): 1.55 nM
- Ki (human glucagon receptor): 4150 nM
- Ki (human GIP receptor): 0.263 nM

B3: Y-Aib-EGT-αMeF(2F)-TSD-4Pal-SI-αMeL-LD-Orn-K((2-[2-(2-Amino-ethoxy)-ethoxy]-acetyl)2-(γ-Glu)-CO-(CH2)12-CO2H)AQ-Aib-EFIK((2-[2-(2-Amino-ethoxy)-ethoxy]-acetyl)2 … (peptide)
peptide: YXEGTXTSDXSIXLDXKAQXEFIKXLIEGGPSSGAPPPS
modifications: Aib2, αMeF(2F)6, 4Pal10, αMeL13, Orn16, K17(Z1), Aib20, K24(Z1), αMeY25, C-term NH2; Z1=AEEA2-(γ-Glu)-CO-(CH2)12-CO2H
- Ki (human GLP-1 receptor): 1.4 nM
- Ki (human glucagon receptor): 707 nM
- Ki (human GIP receptor): 0.054 nM

B4: Y-Aib-EGT-αMeF(2F)-TSDK((2-[2-(2-Amino-ethoxy)-ethoxy]-acetyl)2-(γ-Glu)-CO-(CH2)10-CH3)SI-αMeL-LD-Orn-K((2-[2-(2-Amino-ethoxy)-ethoxy]-acetyl)2-(γ-Glu)-CO-(CH2) … (peptide)
peptide: YXEGTXTSDKSIXLDXKAQXEXIXXLIEGGPSSGAPPPS
modifications: Aib2, αMeF(2F)6, K10(Z1), αMeL13, Orn16, K17(Z1), Aib20, αMeF22, D-Glu24, αMeY25, C-term NH2; Z1=AEEA2-(γ-Glu)-CO-(CH2)10-CH3
- Ki (human GLP-1 receptor): 0.211 nM
- Ki (human glucagon receptor): 23.1 nM
- Ki (human GIP receptor): 0.022 nM

B5: Y-Aib-EGT-αMeF(2F)-TSD-hTyr-SI-αMeL-LD-Orn-K((2-[2-(2-Amino-ethoxy)-ethoxy]-acetyl)2-(γ-Glu)-CO-(CH2)12-CO2H)AQ-Aib-EFI-(D-Glu)-αMeY-LIEGGK((2-[2-(2-Amino-ethox … (peptide)
peptide: YXEGTXTSDXSIXLDXKAQXEFIXXLIEGGKSSGAPPPS
modifications: Aib2, αMeF(2F)6, hTyr10, αMeL13, Orn16, K17(Z1), Aib20, D-Glu24, αMeY25, K31(Z1), C-term NH2; Z1=AEEA2-(γ-Glu)-CO-(CH2)12-CO2H
- Ki (human GLP-1 receptor): 0.789 nM
- Ki (human glucagon receptor): 2000 nM
- Ki (human GIP receptor): 0.171 nM

B6: Y-Aib-EGT-αMeF(2F)-TSD-Nle-SI-αMeL-LD-Orn-K((2-[2-(2-Amino-ethoxy)-ethoxy]-acetyl)2-(γ-Glu)-CO-(CH2)12-CO2H)AQ-Aib-EFI-(D-Glu)-αMeY-LIEGGK((2-[2-(2-Amino-ethoxy … (peptide)
peptide: YXEGTXTSDXSIXLDXKAQXEFIXXLIEGGKSSGAPPPS
modifications: Aib2, αMeF(2F)6, Nle10, αMeL13, Orn16, K17(Z1), Aib20, D-Glu24, αMeY25, K31(Z1), C-term NH2; Z1=AEEA2-(γ-Glu)-CO-(CH2)12-CO2H
- Ki (human GLP-1 receptor): 0.872 nM
- Ki (human glucagon receptor): 737 nM
- Ki (human GIP receptor): 0.11 nM

B7: Y-Aib-EGT-αMeF(2F)-TSD-4Pal-SI-αMeL-LD-Orn-K((2-[2-(2-Amino-ethoxy)-ethoxy]-acetyl)2-(γ-Glu)-CO-(CH2)12-CO2H)AQ-Aib-E-3,5FPhe-I-(D-Glu)-αMeY-LIEGGK((2-[2-(2-Ami … (peptide)
peptide: YXEGTXTSDXSIXLDXKAQXEXIXXLIEGGKSSGAPPPS
modifications: Aib2, αMeF(2F)6, 4Pal10, αMeL13, Orn16, K17(Z1), Aib20, 3,5FPhe22, D-Glu24, αMeY25, K31(Z1), C-term NH2; Z1=AEEA2-(γ-Glu)-CO-(CH2)12-CO2H
- Ki (human GLP-1 receptor): 1.05 nM
- Ki (human glucagon receptor): 4290 nM
- Ki (human GIP receptor): 0.121 nM

B8: Y-Aib-EGT-αMeF(2F)-TSD-2Nal-SI-αMeL-LD-Orn-K((2-[2-(2-Amino-ethoxy)-ethoxy]-acetyl)2-(γ-Glu)-CO-(CH2)12-CO2H)AQ-Aib-EFI-(D-Glu)-αMeY-LIEGGK((2-[2-(2-Amino-ethox … (peptide)
peptide: YXEGTXTSDXSIXLDXKAQXEFIXXLIEGGKSSGAPPPS
modifications: Aib2, αMeF(2F)6, 2Nal10, αMeL13, Orn16, K17(Z1), Aib20, D-Glu24, αMeY25, K31(Z1), C-term NH2; Z1=AEEA2-(γ-Glu)-CO-(CH2)12-CO2H
- Ki (human GLP-1 receptor): 4.35 nM
- Ki (human glucagon receptor): 114 nM
- Ki (human GIP receptor): 0.297 nM

B9: Y-Aib-EGT-αMeF(2F)-TSD-OMeY-SI-αMeL-LD-Orn-K((2-[2-(2-Amino-ethoxy)-ethoxy]-acetyl)2-(γ-Glu)-CO-(CH2)12-CO2H)AQ-Aib-EFI-(D-Glu)-αMeY-LIEGGK((2-[2-(2-Amino-ethox … (peptide)
peptide: YXEGTXTSDXSIXLDXKAQXEFIXXLIEGGKSSGAPPPS
modifications: Aib2, αMeF(2F)6, OMeY10, αMeL13, Orn16, K17(Z1), Aib20, D-Glu24, αMeY25, K31(Z1), C-term NH2; Z1=AEEA2-(γ-Glu)-CO-(CH2)12-CO2H
- Ki (human GLP-1 receptor): 1.15 nM
- Ki (human glucagon receptor): 1920 nM
- Ki (human GIP receptor): 0.208 nM
